Measurements published in publication PMC7850899, “Nutrient transceptors physically interact with the yeast S6/protein kinase B homolog, Sch9, a TOR kinase target” (Biochemical Journal, 2021).

Columns and labels:
[1] = molecular target: T1, Gap1 peptide 222-236 with S234 replaced by E (substitution scan) (S. cerevisiae, UniProt P19145 222-236, S234E); experiment: peptide or protein array; PEPperCHIP substitution scan of …, 300 peptides in triplicate; 100 or 500 µg/ml GST-Sch9 or GST, 16 h at 4°C; detected with anti-GST DyLight680; settings: both partners purified
T1 construct: source: synthesised on the PEPperCHIP substitution peptide microarray (PEPperPRINT)
T1 peptide (looked up): GVKGYGEAEFVFEFI

[2] = molecular target: T2, Gap1 peptide 222-236 with V232 replaced by E (substitution scan) (S. cerevisiae, UniProt P19145 222-236, 232V replaced by E); experiment: as above; settings: both partners purified
T2 construct: source: synthesised on the PEPperCHIP substitution peptide microarray (PEPperPRINT)
T2 peptide (looked up): GVKGYGEAEFEFSFI

B1: GST-tagged Sch9 (GST-Sch9) (enzyme, S. cerevisiae, UniProt P11792 1-824, looked up)
chain: MMNFFTSKSSNQDTGFSSQHQHPNGQNNGNNNSSTAGNDNGYPCKLVSSGPCASSNNGALFTNFTLQTATPTTAISQDLYAMGTTGITSENALFQMKSMNNGISSVNNNNSNTPTIITTSQEETNAGNVHGDTGGNSLQNSEDDNFSSSSTTKCLLSSTSSLSINQREAAAAAYGPDTDIPRGKLEVTIIEARDLVTRSKDSQPYVVCTFESSEFISNGPESLGAINNNNNNNNNNQHNQNQHINNNNENTNPDAASQHHNNNSGWNGSQLPSIKEHLKKKPLYTHRSSSQLDQLNSCSSVTDPSKRSSNSSSGSSNGPKNDSSHPIWHHKTTFDVLGSHSELDISVYDAAHDHMFLGQVRLYPMIHNLAHASQHQWHSLKPRVIDEVVSGDILIKWTYKQTKKRHYGPQDFEVLRLLGKGTFGQVYQVKKKDTQRIYAMKVLSKKVIVKKNEIAHTIGERNILVTTASKSSPFIVGLKFSFQTPTDLYLVTDYMSGGELFWHLQKEGRFSEDRAKFYIAELVLALEHLHDNDIVYRDLKPENILLDANGNIALCDFGLSKADLKDRTNTFCGTTEYLAPELLLDETGYTKMVDFWSLGVLIFEMCCGWSPFFAENNQKMYQKIAFGKVKFPRDVLSQEGRSFVKGLLNRNPKHRLGAIDDGRELRAHPFFADIDWEALKQKKIPPPFKPHLVSETDTSNFDPEFTTASTSYMNKHQPMMTATPLSPAMQAKFAGFTFVDESAIDEHVNNNRKFLQNSYFMEPGSFIPGNPNLPPDEDVIDDDGDEDINDGFNQEKNMNNSHSQMDFDGDQHMDDEFVSGRFEI
notes: Sch9 protein kinase of yeast, expressed from pGEX-Sch9 (pGEX-4T-1-Sch9); Plasmid from J. Bergsma; also called GST-Sch9p; source: purified from E. coli (peptide microarrays); not shown: GST, N-terminal, kept
- fold change of spot intensity against the wild type peptide [1]: > 5 fold
- fold change of spot intensity against the wild type peptide [2]: 3 fold
